B1: CBL-interacting serine/threonine-protein kinase 24 (Arabidopsis thaliana (Mouse-ear cress)), Q9LDI3 (parent)
chain: MTKKMRRVGKYEVGRTIGEGTFAKVKFARNTDTGDNVAIKIMAKSTILKNRMVDQIKREISIMKIVRHPNIVRLYEVLASPSKIYIVLEFVTGGELFDRIVHKGRLEESESRKYFQQLVDAVAHCHCKGVYHRDLKPENLLLDTNGNLKVSDFGLSALPQEGVELLRTTCGTPNYVAPEVLSGQGYDGSAADIWSCGVILFVILAGYLPFSETDLPGLYRKINAAEFSCPPWFSAEVKFLIHRILDPNPKTRIQIQGIKKDPWFRLNYVPIRAREEEEVNLDDIRAVFDGIEGSYVAENVERNDEGPLMMNAFEMITLSQGLNLSALFDRRQDFVKRQTRFVSRREPSEIIANIEAVANSMGFKSHTRNFKTRLEGLSSIKAGQLAVVIEIYEVAPSLFMVDVRKAAGETLEYHKFYKKLCSKLENIIWRATEGIPKSEILRTITF

Variants of: B1
Conditions: with vatb1_arath VHA-B1, P11574
Sequence of vatb1_arath VHA-B1, P11574 (P11574 whole entry): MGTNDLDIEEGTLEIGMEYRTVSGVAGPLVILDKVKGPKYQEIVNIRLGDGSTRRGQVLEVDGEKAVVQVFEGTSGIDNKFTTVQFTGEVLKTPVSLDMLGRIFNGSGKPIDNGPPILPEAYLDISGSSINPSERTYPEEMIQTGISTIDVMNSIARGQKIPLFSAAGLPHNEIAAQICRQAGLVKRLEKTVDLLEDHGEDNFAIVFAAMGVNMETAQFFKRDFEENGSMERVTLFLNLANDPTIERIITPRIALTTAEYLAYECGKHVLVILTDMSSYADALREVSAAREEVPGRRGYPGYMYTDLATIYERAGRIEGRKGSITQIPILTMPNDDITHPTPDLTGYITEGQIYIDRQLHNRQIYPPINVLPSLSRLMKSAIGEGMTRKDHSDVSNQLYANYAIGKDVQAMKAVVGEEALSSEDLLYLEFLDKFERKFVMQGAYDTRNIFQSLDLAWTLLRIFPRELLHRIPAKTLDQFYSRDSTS

Variant | effect of a mutation on the interaction
MTKKMRRVGKYEVGRTIGEGTFAKVKFARNTDTGDNVAINIMAKSTILKNRMVDQIKREISIMKIVRHPNIVRLYEVLASPSKIYIVLEFVTGGELFDRIVHKGRLEESESRKYFQQLVDAVAHCHCKGVYHRDLKPENLLLDTNGNLKVSDFGLSALPQEGVELLRTTCGTPNYVAPEVLSGQGYDGSAADIWSCGVILFVILAGYLPFSETDLPGLYRKINAAEFSCPPWFSAEVKFLIHRILDPNPKTRIQIQGIKKDPWFRLNYVPIRAREEEEVNLDDIRAVFDGIEGSYVAENVERNDEGPLMMNAFEMITLSQGLNLSALFDRRQDFVKRQTRFVSRREPSEIIANIEAVANSMGFKSHTRNFKTRLEGLSSIKAGQLAVVIEIYEVAPSLFMVDVRKAAGETLEYHKFYKKLCSKLENIIWRATEGIPKSEILRTITF [K40N] | decreasing interaction

Variants of: B1
Conditions: with vatb2_arath VHA-B2, Q9SZN1
Sequence of vatb2_arath VHA-B2, Q9SZN1 (Q9SZN1 whole entry): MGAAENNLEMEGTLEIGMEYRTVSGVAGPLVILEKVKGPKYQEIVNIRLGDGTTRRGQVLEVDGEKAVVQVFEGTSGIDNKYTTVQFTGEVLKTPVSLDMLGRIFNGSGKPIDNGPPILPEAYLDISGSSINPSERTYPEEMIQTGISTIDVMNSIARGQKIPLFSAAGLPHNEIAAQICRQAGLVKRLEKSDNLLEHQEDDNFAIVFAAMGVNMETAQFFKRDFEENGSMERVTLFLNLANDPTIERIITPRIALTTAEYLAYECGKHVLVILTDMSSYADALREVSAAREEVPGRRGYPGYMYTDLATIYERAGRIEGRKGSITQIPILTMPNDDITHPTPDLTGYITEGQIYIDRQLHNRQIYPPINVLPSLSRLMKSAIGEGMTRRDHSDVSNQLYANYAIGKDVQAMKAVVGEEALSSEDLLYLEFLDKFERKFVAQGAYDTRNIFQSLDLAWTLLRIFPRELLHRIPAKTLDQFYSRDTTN

Variant | effect of a mutation on the interaction
MTKKMRRVGKYEVGRTIGEGTFAKVKFARNTDTGDNVAINIMAKSTILKNRMVDQIKREISIMKIVRHPNIVRLYEVLASPSKIYIVLEFVTGGELFDRIVHKGRLEESESRKYFQQLVDAVAHCHCKGVYHRDLKPENLLLDTNGNLKVSDFGLSALPQEGVELLRTTCGTPNYVAPEVLSGQGYDGSAADIWSCGVILFVILAGYLPFSETDLPGLYRKINAAEFSCPPWFSAEVKFLIHRILDPNPKTRIQIQGIKKDPWFRLNYVPIRAREEEEVNLDDIRAVFDGIEGSYVAENVERNDEGPLMMNAFEMITLSQGLNLSALFDRRQDFVKRQTRFVSRREPSEIIANIEAVANSMGFKSHTRNFKTRLEGLSSIKAGQLAVVIEIYEVAPSLFMVDVRKAAGETLEYHKFYKKLCSKLENIIWRATEGIPKSEILRTITF [K40N] | decreasing interaction

From IntAct's records for PubMed 17875927
